Assays:
[1] = molecular target: humanized 12G8 anti-IL-10 antibody; experiment: sandwich ELISA: capture 13G4 0.5 ug/mL, humanized 12G8 100 ng/mL, detection biotinylated 11F12 1.0 ug/mL
[2] = molecular target: humanized 12G8 anti-IL-10 antibody; experiment: sandwich ELISA: capture 13G4 2.0 ug/mL, humanized 12G8 100 ng/mL, detection biotinylated 11F12 2.0 ug/mL
[3] = molecular target: humanized 12G8 anti-IL-10 antibody; experiment: blocking ELISA: purified antibody titrated against biotinylated humanized 12G8, binding to coated human IL-10 read
[4] = molecular target: humanized 12G8 anti-IL-10 antibody; experiment: sandwich ELISA: capture 13G4 1.0 ug/mL, humanized 12G8 100 ng/mL, detection biotinylated 11F12 2.0 ug/mL
[5] = molecular target: humanized 12G8 anti-IL-10 antibody; experiment: sandwich ELISA: capture 13G4 1.0 ug/mL, humanized 12G8 100 ng/mL, detection biotinylated 11F12 0.5 ug/mL
[6] = molecular target: humanized 12G8 anti-IL-10 antibody; experiment: sandwich ELISA: capture 13G4 0.5 ug/mL, humanized 12G8 100 ng/mL, detection biotinylated 11F12 2.0 ug/mL
[7] = molecular target: humanized 12G8 anti-IL-10 antibody; experiment: sandwich ELISA: capture 13G4 2.0 ug/mL, humanized 12G8 100 ng/mL, detection biotinylated 11F12 0.5 ug/mL
[8] = molecular target: humanized 12G8 anti-IL-10 antibody; experiment: sandwich ELISA: capture 13G4 2.0 ug/mL, humanized 12G8 100 ng/mL, detection biotinylated 11F12 1.0 ug/mL
[9] = molecular target: humanized 12G8 anti-IL-10 antibody; experiment: sandwich ELISA: capture 13G4 0.5 ug/mL, humanized 12G8 100 ng/mL, detection biotinylated 11F12 0.5 ug/mL
[10] = molecular target: humanized 12G8 anti-IL-10 antibody; experiment: sandwich ELISA: capture 13G4 1.0 ug/mL, humanized 12G8 100 ng/mL, detection biotinylated 11F12 1.0 ug/mL

Row | Binder | Signal:Noise Ratio [1] | Signal:Noise Ratio [2] | IC50 [3] [nM] | Signal:Noise Ratio [4] | Signal:Noise Ratio [5] | Signal:Noise Ratio [6] | Signal:Noise Ratio [7] | Signal:Noise Ratio [8] | Signal:Noise Ratio [9] | Signal:Noise Ratio [10]
1 | JL11.11F12.C4 (antibody, V domains shown) VH: EVQVQQSGPELVKPGASMKISCKASGYSFTGYTMNWVKQSHGKTLEWIGLINPYNGGTTYNQKFKGKATLTVDKSSSTAYMELLSLTSEDSAVYYCARRGSGYAMDYWGQGTSVTVS VL: QIVLTQSPAIMSASLGERVAMTCTASSSVSSHYLHWYQQKPGSSPKLWIYSTSNLASGVPARFSGSGSGTSYSLTISSMEAEDAATYYCHQYHRSPWTFGGGTKLEIKR | 8 | 20 | 2 | 25 | 32 | 8 | 22 | 7.5 | 10 | 40
2 | JL11.13G4.B11 (antibody, V domains shown) VH: EVKLVESGGGLVKPGGSLKLSCAASGFAFSSYDMSWVRQTPEKRLEWVASISSDGSYTYYPDTVKGRFTISRDNARNTLNLQMSSLRSEDTALYFCARQDGYYLDYWGQGTTLTVSS VL: EIVLTQSPALMAASPGEKVTITCSVSSSISSSKLYWYQQKSETSPKPWIYGTSNLASGVPVRFSGSGSGTSYSLTISSMEAEDAATYYCQQWSSYPLTFGAGTKLELKR | – | – | 1 | – | – | – | – | – | – | –

From US8383350
